According to a protein production outcome set (Wang et al. 2014):

experiment: label from the status in PepcDB records

Protein production, not failed:
MSLNGSSIIEFEDMTWSQQVEDSKKPVVVMFYSPACPYCKAMEPYFEEYAKEYGSSAVFGRINIATNPWTAEKYGVQGTPTFKFFCHGRPVWEQVGQIYPSILKNAVRDMLQHGEECIRKSTPVGQDITGYVEGHHHHHH
MSLNILVIGTGAIGSFYGALLAKTGHCVSVVARSDYETVKAKGIRIRSATLGDYTFRPAAVVRSAAELETKPDCTLLCIKVVEGADRVGLLRDAVAPDTGIVLISNGIDIEPEVAAAFPDNEVISGLAFIGVTRTAPGEIWHQAYGRLMLGNYPGGVSERVKTLAAAFEEAGIDGIATENITTARWQKCVWNAAFNPLSVLSGGLDTLDILSTQEGFVRAIMQEIRAVAAANGHPLPEDIVEKNVASTYKMPPYKTSMLVDFEAGQPMETEVILGNAVRAGRRTRVAIPHLESVYALMKLLELRTSKSLWGNEGHHHHHH
MSLNRHFTVSVFIVCKDKVLLHLHKKAKKMLPLGGHIEVNELPEEACIREAKEEAGLNVTLYNPIDINLKKSCDLSGEKLLINPIHTILGDVSPNHSHIDFVYYATTTSFETSPEIGESKILKWYSKEDLKNAHNIQENILVMATEALDLLEGHHHHHH
MSLNVIDLFSGVGGLSLGAARAGFDVKMAVEIDQHAINTHAINFPRSLHVQEDVSLLNAEIIKGFFKNDMPIDGIIGGPPCQGFSSIGKGNPDDSRNQLYMHFYRLVSELQPLFFLAENVPGIMQEKYSGIRNKAFNLVSGDYDILDPIKVKASDYGAPTIRTRYFFIGVKKSLKLDISDEVFMPKMIDPVTVKDALYGLPDIIDANWQSDSESWRTIKKDRKGGFYEKLWGQIPRNVGDTESIAKLKNNIISGCTGTLHSKIVQERYASLSFGETDKISRSTRLDPNGFCPTLRAGTARDKGSFQAVRPIHPYHPRVITPREAARLQGFPDWFRFHVTKWHSFRQIGNSVSPIVAEYILKGLYNLLNEGHHHHHH
MSLNVQTVAVIGSGTMGAGIAEVAASHGHQVLLYDISAEALTRAIDGIHARLNSRVTRGKLTAETCERTLKRLIPVTDIHALAAADLVIEAASERLEVKKALFAQLAEVCPPQTLLTTNTSSISITAIAAEIKNPERVAGLHFFNPAPVMKLVEVVSGLATAAEVVEQLCELTLSWGKQPVRCHSTPGFIVNRVARPYYSEAWRALEEQVAAPEVIDAALRDGAGFPMGPLELTDLIGQDVNFAVTCSVFNAFWQERRFLPSLVQQELVIGGRLGKKSGLGVYDWRAEREAVVGLEAVSDSFSPMKVEKKSDGVTEIDDVLLIETQGETAQALAIRLARPVVVIDKMAGKVVTIAAAAVNPDSATRKAIYYLQQQGKTVLQIADYPGMLIWRTVAMIINEALDALQKGVASEQDIDTAMRLGVNYPYGPLAWGAQLGWQRILRLLENLQHHYGEERYRPCSLLRQRALLESGYESEGHHHHHH
MSLPGLSAAADQTIKIGAQSMSESEIIASMLGQLIEHHTDLKTTTIKNLGSNAVQQQALMNGEIDIAATRYTGDALTGTLRMEPEKDPDKALALTQREFKKRYDLKWYDSYGFDNTYAFTVSKELADQYHLETVSDVKKWAPQLKLGVDNYWMKLKGNGYQDFTKTYGMTFGGTYPMQIGLVYDAVKSGKMDIVLAYSTDGRIKSYGLKMLKDDKQFFPPYDCSPVVPEKVLKEHPELEGIIKKMLGKIDTATMQELNYEVDGNLKEPSVVAKEYLEKHRYFESLEHHHHHH
MSLPTEMHHNLGAEKRSAVATTIDSFKERSQKVRALSDPNVRFVPFFGSSEWLRFDGAHPAVLAEKYNRSYRPYLLGQGGAASLNQYFGMQQMLPQLENKQVVYVISPQWFSKNGYDPAAFQQYFNGDQLTSFLKHQSGDQASQYAATRLLQQFPNVAMKDLVQKLASKEELSTADNEMIELLARFNERQASFFGQFSVRGYVNYDKHVAKYLKILPDQFSYQAIEDVVKADAEKNTSNNEMGMENYFYNEQIKKDLKKLKDSQKSFTYLKSPEYNDLQLVLTQFSKSKVNPIFIIPPVNKKWMDYAGLREDMYQQTVQKIRYQLESQGFTNIADFSKDGGEPFFMKDTIHLGWLGWLAFDKAVDPFLSNPTPAPTYHLNERFFSKDWATYDGDVKEFQEGHHHHHH
